# Measured values published in patent publication US20090087428A1 (Genentech, published 2009).
# Values joined by “and” are separate entries in the source; they are usually repeats but may differ in a detail not shown here. Identical values can stand only once.
# B1: 5A6/22E7 knob in holes, hingeless bispecific antibody (anti-FcγRIIB/anti-FcεRI) (bispecific antibody)
# chain 1: EVKLEESGGGLVQPGGSMKLSCVASGFTFSDAWMDWVRQSPERGLEWVAEIRSKPNNHATYYAESVKGRFTISRDDSKSSVYLQMTSLRPEDTGIYYCTHFDYWGQGTTLTVSSAKTTGPSVFPLAPSSKSTSGGTAALGCLVKDYFPEPVTVSWNSGALTSGVHTFPAVLQSSGLYSLSSVVTVPSSSLGTQTYICNVNHKPSNTKVDKKVEPKSCDKTHTSPPSPAPELLGGPSVFLFPPKPKDTLMISRTPEVTCVVVDVSHEDPEVKFNWYVDGVEVHNAKTKPREEQYNSTYRVVSVLTVLHQDWLNGKEYKCKVSNKALPAPIEKTISKAKGQPREPQVYTLPPSRDELTKNQVSLWCLVKGFYPSDIAVEWESNGQPENNYKTTPPVLDSDGSFFLYSKLTVDKSRWQQGNVFSCSVMHEALHNHYTQKSLSLSPEL
# chain 2: DIQMTQSPSSLSASLGERVSLTCRASQEISGYLSWFQQKPDGTIKRLIYAASALDSGVPKRFSGSWSGSDYSLTISSLESEDFADYYCLQYVSYPLTFGAGTKLELKRTVAAPSVFIFPPSDEQLKSGTASVVCLLNNFYPREAKVQWKVDNALQSGNSQESVTEQDSKDSTYSLSSTLTLSKADYEKHKVYACEVTHQGLSSPVTKSFNRGEC
# chain 3: EVKLVESGGGLVKPGGSLKLSCAASGFTFSSYGMSWVRQTPEKRLEWVATISGGNNYTFYPDNLKGRFTISRDNAKNILYLQISSLRSVDTALYYCASLWYRASFAYWGQGTLVTVSSAKTTGPSVFPLAPSSKSTSGGTAALGCLVKDYFPEPVTVSWNSGALTSGVHTFPAVLQSSGLYSLSSVVTVPSSSLGTQTYICNVNHKPSNTKVDKKVEPKSCDKTHTSPPSPAPELLGGPSVFLFPPKPKDTLMISRTPEVTCVVVDVSHEDPEVKFNWYVDGVEVHNAKTKPREEQYNSTYRVVSVLTVLHQDWLNGKEYKCKVSNKALPAPIEKTISKAKGQPREPQVYTLPPSRDELTKNQVSLSCAVKGFYPSDIAVEWESNGQPENNYKTTPPVLDSDGSFFLVSKLTVDKSRWQQGNVFSCSVMHEALHNHYTQKSLSLSPEL
# chain 4: DIMMTQSPSSMYASLGERVTITCKASQDINSYLSWFQQKPGKSPKTLISRANRLVDGVPSRFSGSGSGQDYSLTISSLEYEDMGIYYCLQYDDFPFTFGGGTKVEIKRTVAAPSVFIFPPSDEQLKSGTASVVCLLNNFYPREAKVQWKVDNALQSGNSQESVTEQDSKDSTYSLSSTLTLSKADYEKHKVYACEVTHQGLSSPVTKSFNRGEC
# Assays:
# [1] = biological target: B1; assay: flow cytometry, RBL huFcεRI+huFcγRIIB1 and +huFcγRIIB2 cells (FIGS. 40, 41)
# [2] = biological target: T1, GST-huFcγRIIB (human FcγRIIB extracellular domain-Gly-His6-GST fusion protein) (human, UniProt P08515 1-218 = GST); assay: sandwich (bridging) ELISA, FIG. 29: plate FcγRIIB-His6-GST, antibody titrated, then huFcεRI-ECD-Fc and IgE-biotin/streptavidin-HRP; signal needs both arms
# T1 construct: Expressed in 293 cells; also called FcγRIIB-His6-GST; huFcγRIIB-His6-GST
# [3] = biological target: T2, huFcεRI-ECD-Fc (IgE receptor fusion) (human, UniProt P12319 26-205); assay: sandwich (bridging) ELISA, FIG. 30: plate huFcεRI-ECD-Fc, antibody titrated, then FcγRIIB-His6-GST and anti-GST-biotin/streptavidin-HRP; signal needs both arms, so the value does not measure 22E7 on FcεRI alone
# T2 construct: extracellular domain; not shown: Fc part
# T2 sequence (looked up): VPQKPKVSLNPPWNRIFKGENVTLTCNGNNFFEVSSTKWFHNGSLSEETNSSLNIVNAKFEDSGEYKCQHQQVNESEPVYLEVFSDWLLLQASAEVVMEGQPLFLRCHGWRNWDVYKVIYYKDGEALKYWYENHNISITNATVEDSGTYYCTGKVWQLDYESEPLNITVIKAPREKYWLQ
# [4] = biological target: T2, huFcεRI-ECD-Fc (IgE receptor fusion); assay: sandwich (bridging) ELISA, FIG. 30: plate huFcεRI-ECD-Fc, antibody titrated, then FcγRIIB-His6-GST and anti-GST-biotin/streptavidin-HRP; signal needs both arms
# Experimental: ELISA plates were coated overnight at 4° C. with 100 μl of a 1 μg/ml solution of huFcεRI-ECD-Fc in PBS, pH 7.4. The plate was washed with PBS and blocked with 1% Casein blocker in PBS. The wells were washed three times with PBS/0.05% TWEEN®. Serial dilutions of 5A6/22E7 bispecific antibodies, 5A6 antibodies, or 22E7 antibody were prepared in ELISA Diluent buffer and added to wells at 100 μl/well of each dilution. The plates were incubated for 1 hour at room temperature. After washing the plate three times with PBS/0.05% TWEEN®, FcγRIIB-His₆-GST was added to each well at 100 μl of 1 μg/ml in the presence of 10 μg/ml of CD4-IgG to block FcγRIIB-His₆-GST binding to Fc portion of the test antibody, huFcεRI-ECD-Fc and secondary antibody (anti-GST-biotin) and incubated for 1 hour at room temperature. After washing the plate three times with PBS/0.05% TWEEN®, 100 μl of 1 μg/ml anti-GST-biotin was added to each well and incubated for 1 hour at room temperature. The plate was washed with PBS/0.05% TWEEN® and incubated 30 minutes with 100 μl/well of 1:2000 Streptavidin-HRP in Elisa diluent buffer. After washing with PBS/0.05% TWEEN®, the plate was incubated 5 minutes with 100 μl TMB substrate. The reaction was quenched with 100 μl/well stop solution and the plate read at 630 nm. […]
# [5] = biological target: T1, GST-huFcγRIIB (human FcγRIIB …); assay: ELISA, plate-coated GST fusion (FIG. 6)
# [6] = biological target: T3, native human FcγRIIA (CD32A) on K562 erythroleukemia cells (human, UniProt P12318 34-317); assay: indirect immunofluorescence, flow cytometry on K562 cells (FIG. 16)
# T3 construct: also called huFcγRIIA (CD32A); native FcγRIIA
# T3 sequence: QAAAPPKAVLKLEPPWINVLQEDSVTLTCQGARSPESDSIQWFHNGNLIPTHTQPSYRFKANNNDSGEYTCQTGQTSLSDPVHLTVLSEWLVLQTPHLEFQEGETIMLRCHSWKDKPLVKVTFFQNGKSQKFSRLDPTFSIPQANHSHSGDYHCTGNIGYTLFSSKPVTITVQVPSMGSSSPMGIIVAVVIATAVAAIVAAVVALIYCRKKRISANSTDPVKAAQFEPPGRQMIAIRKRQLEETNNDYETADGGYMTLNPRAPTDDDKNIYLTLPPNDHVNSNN
# Source text: Indirect immunofluorescence binding analysis of 5A6 MAb to native FcγRIIA expressed on K562 erythroleukemia cells (ATCC No. CCL-243) is presented in FIG. 16. Separated aliquots of K562 cells were stained with either a mIgG1 isotype control (mopc 21), 5A6 (anti-human FcγRIIB) monoclonal antibody or Medarex 4.3 MAb (anti-human FcγRIIA/B) monoclonal antibody.
Binder,ECD to bispecific ratio at which binding to cells is decreased (complete blocking only with both ECDs) [1],IC50 [2],IC50 [4],further results
"huFcγRIIB extracellular domain with C-terminal His6 tag (huFcγRIIB ECD) (receptor, Whole entry named; only the extracellular domain is in the construct; Baculovirus expression) TPAAPPKAVLKLEPQWINVLQEDSVTLTCRGTHSPESDSIQWFHNGNLIPTHTQPSYRFKANNNDSGEYTCQTGQTSLSDPVHLTVLSEWLVLQTPHLEFQEGETIVLRCHSWKDKPLVKVTFFQNGKSKKFSRSDPNFSIPQANHSHSGDYHCTGNIGYTLYSSKPVTITVQAPHHHHHH",10 ratio ECD:bispecific,–,–,–
"huFcεRIα extracellular domain (huFcεRIα ECD) (receptor, human, UniProt P12319 26-205, looked up, extracellular domain; also called huFcεRI ECD) VPQKPKVSLNPPWNRIFKGENVTLTCNGNNFFEVSSTKWFHNGSLSEETNSSLNIVNAKFEDSGEYKCQHQQVNESEPVYLEVFSDWLLLQASAEVVMEGQPLFLRCHGWRNWDVYKVIYYKDGEALKYWYENHNISITNATVEDSGTYYCTGKVWQLDYESEPLNITVIKAPREKYWLQ",10 ratio ECD:bispecific,–,–,–
22E7 MAb (anti-human FcεRI monoclonal antibody) (antibody) chain 1: EVKLVESGGGLVKPGGSLKLSCAASGFTFSSYGMSWVRQTPEKRLEWVATISGGNNYTFYPDNLKGRFTISRDNAKNILYLQISSLRSVDTALYYCASLWYRASFAYWGQGTLVTVSS chain 2: DIMMTQSPSSMYASLGERVTITCKASQDINSYLSWFQQKPGKSPKTLISRANRLVDGVPSRFSGSGSGQDYSLTISSLEYEDMGIYYCLQYDDFPFTFGGGTKVEIK,–,100 µg/mL,–,IC50 [3]: 2800 µg/mL
"5A6/22E7 knob in holes, wild type hinge, bispecific antibody (bispecific antibody) chain 1: EVKLEESGGGLVQPGGSMKLSCVASGFTFSDAWMDWVRQSPERGLEWVAEIRSKPNNHATYYAESVKGRFTISRDDSKSSVYLQMTSLRPEDTGIYYCTHFDYWGQGTTLTVSSAKTTGPSVFPLAPSSKSTSGGTAALGCLVKDYFPEPVTVSWNSGALTSGVHTFPAVLQSSGLYSLSSVVTVPSSSLGTQTYICNVNHKPSNTKVDKKVEPKSCDKTHTCPPCPAPELLGGPSVFLFPPKPKDTLMISRTPEVTCVVVDVSHEDPEVKFNWYVDGVEVHNAKTKPREEQYNSTYRVVSVLTVLHQDWLNGKEYKCKVSNKALPAPIEKTISKAKGQPREPQVYTLPPSRDELTKNQVSLWCLVKGFYPSDIAVEWESNGQPENNYKTTPPVLDSDGSFFLYSKLTVDKSRWQQGNVFSCSVMHEALHNHYTQKSLSLSPEL chain 2: DIQMTQSPSSLSASLGERVSLTCRASQEISGYLSWFQQKPDGTIKRLIYAASALDSGVPKRFSGSWSGSDYSLTISSLESEDFADYYCLQYVSYPLTFGAGTKLELKRTVAAPSVFIFPPSDEQLKSGTASVVCLLNNFYPREAKVQWKVDNALQSGNSQESVTEQDSKDSTYSLSSTLTLSKADYEKHKVYACEVTHQGLSSPVTKSFNRGEC chain 3: not shown chain 4: DIMMTQSPSSMYASLGERVTITCKASQDINSYLSWFQQKPGKSPKTLISRANRLVDGVPSRFSGSGSGQDYSLTISSLEYEDMGIYYCLQYDDFPFTFGGGTKVEIKRTVAAPSVFIFPPSDEQLKSGTASVVCLLNNFYPREAKVQWKVDNALQSGNSQESVTEQDSKDSTYSLSSTLTLSKADYEKHKVYACEVTHQGLSSPVTKSFNRGEC",–,0.0552 µg/mL and 0.076 µg/mL,0.49 µg/mL and 0.291 µg/mL,–
B1,–,0.023 µg/mL,0.0765 µg/mL,–
"Antibody 5A6.2.1 (anti-human FcγRIIB monoclonal antibody) (antibody, 5A6(A) and 5A6(B) are two protein preps of 5A6; also called 5A6 MAb; 5A6 mIgG1) VH: EVKLEESGGGLVQPGGSMKLSCVASGFTFSDAWMDWVRQSPERGLEWVAEIRSKPNNHATYYAESVKGRFTISRDDSKSSVYLQMTSLRPEDTGIYYCTHFDYWGQGTTLTVSSAKTTGPSVFPLAPSSKSTSGGTAALGCLVKDYFPEPVTVSWNSGALTSGVHTFPAVLQSSGLYSLSSVVTVPSSSLGTQTYICNVNHKPSNTKVDKKVEPKSCDKTHT VL: DIQMTQSPSSLSASLGERVSLTCRASQEISGYLSWFQQKPDGTIKRLIYAASALDSGVPKRFSGSWSGSDYSLTISSLESEDFADYYCLQYVSYPLTFGAGTKLELKRTVAAPSVFIFPPSDEQLKSGTASVVCLLNNFYPREAKVQWKVDNALQSGNSQESVTEQDSKDSTYSLSSTLTLSKADYEKHKVYACEVTHQGLSSPVTKSFNRGEC",–,–,–,EC50 [5]: 0.06 nM; binding result [6]: no binding
